The record followed here is paper PMC9098846, “Molecular insights into biogenesis of glycosylphosphatidylinositol anchor proteins” (Nature Communications, 2022).

For this assay, the target named is T1, PIGT, subunit of the human GPI transamidase (GPI-T) (human) (UniProt Q969N2).
T1 sequence (chain, disulfide bond from C182 to PIGK C92): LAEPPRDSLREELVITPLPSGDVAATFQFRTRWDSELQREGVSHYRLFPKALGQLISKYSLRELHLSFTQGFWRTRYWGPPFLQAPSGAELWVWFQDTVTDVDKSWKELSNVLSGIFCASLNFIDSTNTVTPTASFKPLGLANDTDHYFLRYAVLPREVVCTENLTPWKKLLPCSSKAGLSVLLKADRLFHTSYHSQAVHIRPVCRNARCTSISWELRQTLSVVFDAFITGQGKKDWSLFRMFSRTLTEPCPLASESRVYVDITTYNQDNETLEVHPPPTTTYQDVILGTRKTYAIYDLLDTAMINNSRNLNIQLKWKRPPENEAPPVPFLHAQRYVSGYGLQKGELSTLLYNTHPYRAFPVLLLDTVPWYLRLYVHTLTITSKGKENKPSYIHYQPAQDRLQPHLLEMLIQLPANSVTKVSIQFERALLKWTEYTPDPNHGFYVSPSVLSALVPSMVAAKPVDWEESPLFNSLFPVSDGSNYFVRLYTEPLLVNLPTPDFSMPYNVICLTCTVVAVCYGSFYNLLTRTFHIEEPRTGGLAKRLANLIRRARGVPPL

B1: PIGK C92A (enzyme)
chain: SHIEDQAEQFFRSGHTNNWAVLVCTSRFWFNYRHVANTLSVYRSVKRLGIPDSHIVLMLADDMAANPRNPKPATVFSHKNMELNVYGDDVEVDYRSYEVTVENFLRVLTGRIPPSTPRSKRLLSDDRSNILIYMTGHGGNGFLKFQDSEEITNIELADAFEQMWQKRRYNELLFIIDTCQGASMYERFYSPNIMALASSQVGEDSLSHQPDPAIGVHLMDRYTFYVLEFLEEINPASQTNMNDLFQVCPKSLCVSTPGHRTDLFQRDPKNVLITDFFGSVRKVEITTETIKLQQDSEIMESSYKEDQMDEKLMEPLKYAEQLPVAQIIHQKPKLKDWHPPGGFILGLWALIIMVFFKTYGIKHMKFIF
In the case of B1, the apparent GPI-T activity: surface staining of the reporter GPI-AP CD59 on PIGK knockout cells by flow cytometry, compared to the wild-type PIGK (% of wild-type) is 61.
